Measured values as given in patent publication US20180187211A1.

Target: PDL1 on the surface of TC-1 cells (mouse (TC-1 murine tumor cell line)) (UniProt Q9EP73)
Assay: flow cytometry, staining of TC-1 tumor cells (background control)

Chain of UniProt Q9EP73 (Q9EP73 19-290): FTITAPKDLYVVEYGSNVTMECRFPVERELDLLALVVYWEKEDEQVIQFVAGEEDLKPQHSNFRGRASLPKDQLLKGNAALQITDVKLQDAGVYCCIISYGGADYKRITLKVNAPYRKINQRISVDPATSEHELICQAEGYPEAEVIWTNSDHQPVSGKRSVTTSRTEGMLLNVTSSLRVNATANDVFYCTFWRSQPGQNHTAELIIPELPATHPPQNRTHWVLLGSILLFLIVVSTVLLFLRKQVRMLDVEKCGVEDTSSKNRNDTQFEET

PE-conjugated isotype control antibody
median fluorescent intensity (MFI): 184 MFI
